The target of series [1] is T1, jun-1 (T24H10.7) (Caenorhabditis elegans) (UniProt G5ECU7).
T1 sequence: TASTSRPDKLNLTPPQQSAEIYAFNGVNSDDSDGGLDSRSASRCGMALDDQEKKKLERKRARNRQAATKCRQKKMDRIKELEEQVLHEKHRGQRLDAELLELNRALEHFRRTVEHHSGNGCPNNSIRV

Series [2] deals with T2, atf-2 (K08F8.2) (Caenorhabditis elegans) (UniProt Q21361).
T2 sequence: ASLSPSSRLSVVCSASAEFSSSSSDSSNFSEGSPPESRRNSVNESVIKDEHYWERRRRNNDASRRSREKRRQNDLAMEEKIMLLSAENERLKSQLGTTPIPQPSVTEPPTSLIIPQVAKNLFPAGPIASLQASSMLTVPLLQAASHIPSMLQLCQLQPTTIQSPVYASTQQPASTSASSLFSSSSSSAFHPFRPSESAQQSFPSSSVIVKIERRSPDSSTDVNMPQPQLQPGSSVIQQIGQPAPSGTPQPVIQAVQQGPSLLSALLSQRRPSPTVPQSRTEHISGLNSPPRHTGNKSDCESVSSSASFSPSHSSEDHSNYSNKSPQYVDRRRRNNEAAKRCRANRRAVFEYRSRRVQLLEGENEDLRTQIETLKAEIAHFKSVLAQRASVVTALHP

For series [3], the target named is T3, ces-1 (F43G9.11) (Caenorhabditis elegans) (UniProt G5ECN8).
T3 sequence: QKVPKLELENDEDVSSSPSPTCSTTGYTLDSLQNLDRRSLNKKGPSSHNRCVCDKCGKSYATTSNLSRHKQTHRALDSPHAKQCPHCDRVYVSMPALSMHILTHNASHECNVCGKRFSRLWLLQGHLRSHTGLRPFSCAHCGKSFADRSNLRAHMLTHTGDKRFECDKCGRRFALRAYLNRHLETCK

In series [4] the target is T4, Y75B8A.6 (Y75B8A.6) (Caenorhabditis elegans) (UniProt A0A168H365).
T4 sequence: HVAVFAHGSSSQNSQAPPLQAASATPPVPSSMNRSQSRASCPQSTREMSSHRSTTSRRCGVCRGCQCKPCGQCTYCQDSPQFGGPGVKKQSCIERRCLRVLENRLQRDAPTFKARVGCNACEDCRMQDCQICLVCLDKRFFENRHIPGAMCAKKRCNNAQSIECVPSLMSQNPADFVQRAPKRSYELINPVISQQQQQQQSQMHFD

For series [5], the target named is T5, T07C12.11 (T07C12.11) (Caenorhabditis elegans) (UniProt G5EGG9).
T5 sequence: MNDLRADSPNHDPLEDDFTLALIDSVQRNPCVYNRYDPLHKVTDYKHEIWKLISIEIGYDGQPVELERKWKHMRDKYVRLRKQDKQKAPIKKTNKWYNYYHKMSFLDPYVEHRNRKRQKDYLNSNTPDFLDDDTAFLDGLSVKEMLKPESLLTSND

Series [6] deals with T6, Y51H4A.4 (Y51H4A.4) (Caenorhabditis elegans) (UniProt Q9NAE4).
T6 sequence: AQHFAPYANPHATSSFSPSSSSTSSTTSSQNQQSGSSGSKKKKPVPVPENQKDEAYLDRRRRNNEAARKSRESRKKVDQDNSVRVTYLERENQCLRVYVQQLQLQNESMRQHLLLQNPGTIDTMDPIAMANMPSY

Series [7] addresses T7, odr-7 (T18D3.2) (Caenorhabditis elegans) (UniProt P41933).
T7 sequence: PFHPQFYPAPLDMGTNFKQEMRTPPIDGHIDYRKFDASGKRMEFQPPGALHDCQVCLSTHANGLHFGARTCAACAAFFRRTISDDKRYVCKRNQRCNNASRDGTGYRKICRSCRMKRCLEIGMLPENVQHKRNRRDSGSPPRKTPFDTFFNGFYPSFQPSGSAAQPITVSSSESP

For series [8], the target named is T8, nhr-168 (C50B6.8) (Caenorhabditis elegans) (UniProt P91983).
T8 sequence: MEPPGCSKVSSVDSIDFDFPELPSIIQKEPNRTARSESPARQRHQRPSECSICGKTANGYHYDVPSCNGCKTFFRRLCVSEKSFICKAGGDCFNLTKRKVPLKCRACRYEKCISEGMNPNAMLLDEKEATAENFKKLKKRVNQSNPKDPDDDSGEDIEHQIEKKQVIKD

Series [9] deals with T9, hlh-16 (DY3.3) (Caenorhabditis elegans) (UniProt O45320).
T9 sequence: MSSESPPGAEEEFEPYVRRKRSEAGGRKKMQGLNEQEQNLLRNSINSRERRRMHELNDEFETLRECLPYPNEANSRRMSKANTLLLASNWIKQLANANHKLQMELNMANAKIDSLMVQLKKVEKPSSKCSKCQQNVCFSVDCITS

The test system of series [10] is T10, C34D1.1 (C34D1.1) (Caenorhabditis elegans).
T10 sequence: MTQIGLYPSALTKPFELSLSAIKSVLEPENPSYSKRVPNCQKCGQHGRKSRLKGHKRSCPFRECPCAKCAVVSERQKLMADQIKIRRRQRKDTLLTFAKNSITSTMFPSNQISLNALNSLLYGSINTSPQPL

Series [11] relates to T11, dmd-3 (Y43F8C.10) (Caenorhabditis elegans).
T11 sequence: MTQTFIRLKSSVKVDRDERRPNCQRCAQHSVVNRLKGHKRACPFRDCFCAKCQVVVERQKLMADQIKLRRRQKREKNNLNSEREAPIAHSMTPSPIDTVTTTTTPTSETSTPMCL

Series [12] has as its target T12, unc-120 (D1081.2) (Caenorhabditis elegans) (UniProt Q18955).
T12 sequence: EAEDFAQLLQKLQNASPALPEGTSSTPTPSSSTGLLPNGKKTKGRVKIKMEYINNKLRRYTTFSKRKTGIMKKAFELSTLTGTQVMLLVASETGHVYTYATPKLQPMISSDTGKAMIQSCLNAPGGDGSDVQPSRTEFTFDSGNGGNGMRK

In series [13] the target is T13, T27F2.4 (T27F2.4) (Caenorhabditis elegans) (UniProt Q22835).
T13 sequence: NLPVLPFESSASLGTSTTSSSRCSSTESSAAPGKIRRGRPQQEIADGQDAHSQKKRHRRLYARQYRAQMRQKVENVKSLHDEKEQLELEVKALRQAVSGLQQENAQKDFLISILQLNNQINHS

In series [14] the target is T14, Y44A6D.3 (Y44A6D.3) (Caenorhabditis elegans) (UniProt Q9XXE0).
T14 sequence: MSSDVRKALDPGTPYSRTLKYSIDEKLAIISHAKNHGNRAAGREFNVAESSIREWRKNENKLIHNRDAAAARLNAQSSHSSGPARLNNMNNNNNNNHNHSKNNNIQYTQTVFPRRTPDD

In series [15] the target is T15, K02D7.2 (K02D7.2) (Caenorhabditis elegans) (UniProt O45103).
T15 sequence: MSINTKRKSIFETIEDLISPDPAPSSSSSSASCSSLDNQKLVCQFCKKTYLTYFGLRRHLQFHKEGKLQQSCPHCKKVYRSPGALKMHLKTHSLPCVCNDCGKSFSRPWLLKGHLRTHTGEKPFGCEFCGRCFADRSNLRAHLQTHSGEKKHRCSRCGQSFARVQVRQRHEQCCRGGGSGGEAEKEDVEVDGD

Series [16] has as its target T16, hlh-12 (C28C12.8) (Caenorhabditis elegans) (UniProt Q18277).
T16 sequence: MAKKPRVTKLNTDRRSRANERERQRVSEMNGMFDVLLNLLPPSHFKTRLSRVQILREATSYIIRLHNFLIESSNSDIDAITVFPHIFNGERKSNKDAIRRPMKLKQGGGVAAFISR

Sequence “ATGACTAA (double strand) [8-mer ATGACTAA]” had a binding signal (PBM E-score (-0.5 to 0.5)) in series [1] of 0.465.
The sequence “TGGCGTAA (double strand) [8-mer TGGCGTAA]” yielded a binding signal (PBM E-score (-0.5 to 0.5)) in series [2] of 0.452.
“ACCTGTAG (double strand) [8-mer ACCTGTAG]”: the binding signal (PBM E-score (-0.5 to 0.5)) in series [3] turned out to be 0.452.
Consider “TTGCGCAA (double strand) [8-mer TTGCGCAA]”, for which the results for the binding signal (PBM E-score (-0.5 to 0.5)) in [4], in series [2] and in series [5] were 0.462, 0.498 and 0.493, respectively.
Regarding “ACGTAATA (double strand) [8-mer ACGTAATA]”, the binding signal (PBM E-score (-0.5 to 0.5)) in series [6] amounted to 0.472.
For the sequence “AGTACAAA (double strand) [8-mer AGTACAAA]”, the values for the binding signal (PBM E-score (-0.5 to 0.5)) in series [7] and in series [8] were 0.451 and 0.456, respectively.
For “TTACGCAA (double strand) [8-mer TTACGCAA]”, the results for the binding signal (PBM E-score (-0.5 to 0.5)) in series [2], in series [6] and in [5] were 0.483, 0.487 and 0.494, respectively.
The sequence “CAATATGG (double strand) [8-mer CAATATGG]” returned a binding signal (PBM E-score (-0.5 to 0.5)) in [9] of 0.486.
In the case of “TTACATAA (double strand) [8-mer TTACATAA]”, the binding signal (PBM E-score (-0.5 to 0.5)) in series [6] is 0.489.
Regarding “TTATATAA (double strand) [8-mer TTATATAA]”, the binding signal (PBM E-score (-0.5 to 0.5)) in series [6] amounted to 0.451.
For the sequence “AGAAACAT (double strand) [8-mer AGAAACAT]”, the binding signal (PBM E-score (-0.5 to 0.5)) turned out to be 0.492 in series [10] and 0.466 in [11].
Turning to “AATGTTTC (double strand) [8-mer AATGTTTC]”, the binding signal (PBM E-score (-0.5 to 0.5)) in series [10] was 0.497; in series [11] it was 0.482.
As to “AATATGGT (double strand) [8-mer AATATGGT]”, the results for the binding signal (PBM E-score (-0.5 to 0.5)) in series [12] and in series [9] were 0.466 and 0.452, respectively.
Regarding “AATTCGTA (double strand) [8-mer AATTCGTA]”, in [13], the binding signal (PBM E-score (-0.5 to 0.5)) stood at 0.47.
Turning to “AGCAACAG (double strand) [8-mer AGCAACAG]”, the binding signal (PBM E-score (-0.5 to 0.5)) in [3] is 0.466.
“CCTGTTGC (double strand) [8-mer CCTGTTGC]” had a binding signal (PBM E-score (-0.5 to 0.5)) in series [3] of 0.479.
“ACAATATG (double strand) [8-mer ACAATATG]” gave a binding signal (PBM E-score (-0.5 to 0.5)) in series [9] of 0.471.
“ATGTTTCA (double strand) [8-mer ATGTTTCA]”: the binding signal (PBM E-score (-0.5 to 0.5)) was determined as 0.498 in series [10] and 0.479 in series [11].
Take “ATTACGTA (double strand) [8-mer ATTACGTA]”: the results for the binding signal (PBM E-score (-0.5 to 0.5)) in series [6] and in series [5] were 0.459 and 0.485, respectively.
For the sequence “ATTAGTCA (double strand) [8-mer ATTAGTCA]”, the binding signal (PBM E-score (-0.5 to 0.5)) in series [1] was determined as 0.463.
Sequence “GTGAGTCA (double strand) [8-mer GTGAGTCA]” displayed a binding signal (PBM E-score (-0.5 to 0.5)) in [1] of 0.478.
Consider “ACCTGTTG (double strand) [8-mer ACCTGTTG]”, for which the binding signal (PBM E-score (-0.5 to 0.5)) in [3] turned out to be 0.493.
In the case of “GTTGCGCA (double strand) [8-mer GTTGCGCA]”, the binding signal (PBM E-score (-0.5 to 0.5)) in [2] stood at 0.452; in [14], 0.493.
The sequence “ATGACTCA (double strand) [8-mer ATGACTCA]” displayed a binding signal (PBM E-score (-0.5 to 0.5)) in series [1] of 0.498.
In the case of “AACAGGTG (double strand) [8-mer AACAGGTG]”, the binding signal (PBM E-score (-0.5 to 0.5)) in [15] was found to be 0.488; in series [3], 0.468.
With “ACCATATG (double strand) [8-mer ACCATATG]”, the binding signal (PBM E-score (-0.5 to 0.5)) in series [16] came out at 0.468; in series [9], 0.478.
In turn, “TACGAATA (double strand) [8-mer TACGAATA]” showed a binding signal (PBM E-score (-0.5 to 0.5)) in series [13] of 0.452.
For the sequence “ACTTGTTG (double strand) [8-mer ACTTGTTG]”, in [3], the binding signal (PBM E-score (-0.5 to 0.5)) is 0.465.
For the sequence “ATTCGTAA (double strand) [8-mer ATTCGTAA]”, the binding signal (PBM E-score (-0.5 to 0.5)) in [13] was determined as 0.489.
Consider “CCATATGG (double strand) [8-mer CCATATGG]”, for which the binding signal (PBM E-score (-0.5 to 0.5)) in series [9] is 0.452.
“TTCGTAAA (double strand) [8-mer TTCGTAAA]” had a binding signal (PBM E-score (-0.5 to 0.5)) in series [13] of 0.458.
For “GTGACTCA (double strand) [8-mer GTGACTCA]”, the binding signal (PBM E-score (-0.5 to 0.5)) in [1] was found to be 0.47.
“ATTACGAA (double strand) [8-mer ATTACGAA]” displayed a binding signal (PBM E-score (-0.5 to 0.5)) in series [13] of 0.485.
Regarding “TGGCGCAA (double strand) [8-mer TGGCGCAA]”, in series [2], the binding signal (PBM E-score (-0.5 to 0.5)) was 0.461.
Sequence “ATGAGTCA (double strand) [8-mer ATGAGTCA]” yielded a binding signal (PBM E-score (-0.5 to 0.5)) in series [1] of 0.493.
In the case of “CAATATTG (double strand) [8-mer CAATATTG]”, the binding signal (PBM E-score (-0.5 to 0.5)) in series [9] was 0.495.

Source of the values: paper PMC4434323.
